Source: patent US20140179594A1, “STREPTOCOCCUS BACTERIOPHAGE LYSINS FOR TREATMENT OF GRAM POSITIVE BACTERIA IN COMPANION ANIMALS AND LIVESTOCK” (priority 2011, published 2014)

Key:
Format in all cases: cell-based
S. suis 5735 (ST2) = assay: ΔPlySs1 CFU analysis; details: 1 hr
Description: (§1) Given the above experiments, the following optimal buffering conditions were employed for all further in vitro experiments with ΔPlySs1: 20 mM phosphate buffer, pH=7.8, 2 mM EDTA. A range of lysin concentrations, from 6.5-130 μg/ml, were introduced to live S. suis cells in this buffer. Three strains were considered particularly relevant: 7711, the serotype 7 strain that encodes PlySs1; 5735, the serotype 2 reference strain; and 7997, a highly virulent serotype 9 strain. In terms of bacterial viability, only the highest PlySs1-concentration (130 μg/ml) led to a >90% decrease in CFUs for 7711, S735, and 7997 after 1 hr treatment (TABLE 2). The lysin was also tested against actively-dividing cells in broth culture (strain 7711) (FIG. 20).
(§2) For two ΔPlySs1 concentrations (130 and 13 μg/ml), CFU analysis was conducted on S. suis strains 5735, 7997, and 7711 after 1 hr treatment (optimal buffering conditions). In each experiment, the percentage-decrease in CFUs was determined for the treated sample versus the untreated. The range of the values observed (across 3 independent experiments) is reported here for each strain. The serotype of each strain is indicated in parentheses.

S. suis 7997 (ST9) = assay: ΔPlySs1 CFU analysis; details: 1 hr
Description: as §1, §2

S. suis ST10 = assay: ΔPlySs1 OD600 lysis, 1 hr
Description: as §1
(§3) ΔPlySs1 was further tested against a panel of 19 other S. suis strains of diverse serotypes, as well as other species of Gram-positive bacteria. The same lysin concentrations were used as above. For each dosage, the observed lysis values after 1 hr are listed in TABLE 3 and TABLE 4, and the information is summarized graphically in FIG. 21.

S. suis ST2 = assay: ΔPlySs1 OD600 lysis, 1 hr
Description: as §1, §3

S. suis ST14 = assay: ΔPlySs1 OD600 lysis, 1 hr
Description: as §1, §3

S. suis ST9 = assay: ΔPlySs1 OD600 lysis, 1 hr
Description: as §1, §3

S. suis ST4 = assay: ΔPlySs1 OD600 lysis, 1 hr
Description: as §1, §3

S. suis 6112 (ST1) = assay: ΔPlySs1 OD600 lysis, 1 hr
Description: as §1, §3

S. suis 8076 (ST9) = assay: ΔPlySs1 OD600 lysis, 1 hr
Description: as §1, §3

S. suis ST8 = assay: ΔPlySs1 OD600 lysis, 1 hr
Description: as §1, §3

S. suis ST1 = assay: ΔPlySs1 OD600 lysis, 1 hr
Description: as §1, §3

S. suis ST13 = assay: ΔPlySs1 OD600 lysis, 1 hr
Description: as §1, §3

S. suis 7197 (ST7) = assay: ΔPlySs1 OD600 lysis, 1 hr
Description: as §1, §3

S. suis ST7 = assay: ΔPlySs1 OD600 lysis, 1 hr
Description: as §1, §3

S. suis ST3 = assay: ΔPlySs1 OD600 lysis, 1 hr
Description: as §1, §3

S. suis ST5 = assay: ΔPlySs1 OD600 lysis, 1 hr
Description: as §1, §3

S. suis 6388 (ST1) = assay: ΔPlySs1 OD600 lysis, 1 hr
Description: as §1, §3

S. suis ST6 = assay: ΔPlySs1 OD600 lysis, 1 hr
Description: as §1, §3

S. sobrinus 6715 = assay: ΔPlySs1 OD600 lysis, 1 hr
S. gordonii 10558 = assay: ΔPlySs1 OD600 lysis, 1 hr

B1: ΔPlySs1: truncated PlySs1 lysin with N-terminal enzymatic and central binding domains, N-terminal 254 amino acids, SEQ ID NO:2 (protein, listed as Streptococcus suis)
chain: MTINLETSIRWMSDRVGKVSYSMDYRNGPNSYDCSSAVYYALMAGGAISAGWAVNTEYMHDWLIRNGYVLVAENKPFNAQRHDVCILGKRGYSSGAGGHVVIFVDNVNVIHCNYARNGISIDNYNQVHRGMYYYLYRPANQPSISNKSLDQLVKETLAGVHGNGDTRKASLGSQYEAVMAVINGKASASEKSDEELAREVLAGKHGAGEDRKRSLGPRYEPVQAKVNELLKAKEKPSETAKNEPQTVQFKEDGDL
B1 was tested, and the “percentage-decrease in CFUs, treated versus untreated (range of 3 experiments)” value (shortened to “percentage-decrease in CFUs”) (S. suis 5735 (ST2); 13 μg/ml) was 80.4%-92.6%, the “percentage-decrease in CFUs” value (S. suis 5735 (ST2); 130 μg/ml) was 95.4%-99.5% and the “percentage-decrease in CFUs” value (S. suis 5735 (ST2); 130 μg/ml, listed as PlySs1) was greater than 90%. For the same molecule, the “percentage-decrease in CFUs” value (S. suis 7997 (ST9); 13 μg/ml) was 16.8%-30.3%, the “percentage-decrease in CFUs” value (S. suis 7997 (ST9); 130 μg/ml) was 89.9%-93.9% and the “percentage-decrease in CFUs” value (S. suis 7997 (ST9); 130 μg/ml, listed as PlySs1) was greater than 90%. The “1-hour treated/untreated OD600-ratio” value (S. suis ST10; 6.5 μg/ml) was 0.85, the “1-hour treated/untreated OD600-ratio” value (S. suis ST10; 13 μg/ml) was 0.72 and the “1-hour treated/untreated OD600-ratio” value (S. suis ST10; 30 μg/ml) was 0.55. The “1-hour treated/untreated OD600-ratio” value (S. suis ST10; 65 μg/ml) was 0.44, the “1-hour treated/untreated OD600-ratio” value (S. suis ST10; 130 μg/ml) was 0.28 and the “1-hour treated/untreated OD600-ratio” value (S. suis ST2; 6.5 μg/ml) was 0.79. For the same molecule, the “1-hour treated/untreated OD600-ratio” value (S. suis ST2; 13 μg/ml) was 0.70, the “1-hour treated/untreated OD600-ratio” value (S. suis ST2; 30 μg/ml) was 0.49 and the “1-hour treated/untreated OD600-ratio” value (S. suis ST2; 65 μg/ml) was 0.34. The “1-hour treated/untreated OD600-ratio” value (S. suis ST2; 130 μg/ml) was 0.17, the “1-hour treated/untreated OD600-ratio” value (S. suis ST14; 6.5 μg/ml) was 0.79 and the “1-hour treated/untreated OD600-ratio” value (S. suis ST14; 13 μg/ml) was 0.57. The “1-hour treated/untreated OD600-ratio” value (S. suis ST14; 30 μg/ml) was 0.33, the “1-hour treated/untreated OD600-ratio” value (S. suis ST14; 65 μg/ml) was 0.15 and the “1-hour treated/untreated OD600-ratio” value (S. suis ST14; 130 μg/ml) was 0.06. For the same molecule, the “1-hour treated/untreated OD600-ratio” value (S. suis ST9; 6.5 μg/ml) was 0.50, the “1-hour treated/untreated OD600-ratio” value (S. suis ST9; 13 μg/ml) was 0.30 and the “1-hour treated/untreated OD600-ratio” value (S. suis ST9; 30 μg/ml) was 0.23. For the same molecule, the “1-hour treated/untreated OD600-ratio” value (S. suis ST9; 65 μg/ml) was 0.13, the “1-hour treated/untreated OD600-ratio” value (S. suis ST9; 130 μg/ml) was 0.05 and the “1-hour treated/untreated OD600-ratio” value (S. suis ST4; 6.5 μg/ml) was 0.63. For the same molecule, the “1-hour treated/untreated OD600-ratio” value (S. suis ST4; 13 μg/ml) was 0.47, the “1-hour treated/untreated OD600-ratio” value (S. suis ST4; 30 μg/ml) was 0.32 and the “1-hour treated/untreated OD600-ratio” value (S. suis ST4; 65 μg/ml) was 0.22. The “1-hour treated/untreated OD600-ratio” value (S. suis ST4; 130 μg/ml) was 0.12, the “1-hour treated/untreated OD600-ratio” value (S. suis 6112 (ST1); 6.5 μg/ml) was 0.14 and the “1-hour treated/untreated OD600-ratio” value (S. suis 6112 (ST1); 13 μg/ml) was 0.11. The “1-hour treated/untreated OD600-ratio” value (S. suis 6112 (ST1); 30 μg/ml) was 0.06, the “1-hour treated/untreated OD600-ratio” value (S. suis 6112 (ST1); 65 μg/ml) was 0.02 and the “1-hour treated/untreated OD600-ratio” value (S. suis 6112 (ST1); 130 μg/ml) was 0.01. For the same molecule, the “1-hour treated/untreated OD600-ratio” value (S. suis 8076 (ST9); 6.5 μg/ml) was 0.52, the “1-hour treated/untreated OD600-ratio” value (S. suis 8076 (ST9); 13 μg/ml) was 0.40 and the “1-hour treated/untreated OD600-ratio” value (S. suis 8076 (ST9); 30 μg/ml) was 0.21. For the same molecule, the “1-hour treated/untreated OD600-ratio” value (S. suis 8076 (ST9); 65 μg/ml) was 0.14, the “1-hour treated/untreated OD600-ratio” value (S. suis 8076 (ST9); 130 μg/ml) was 0.04 and the “1-hour treated/untreated OD600-ratio” value (S. suis ST8; 6.5 μg/ml) was 0.25. For the same molecule, the “1-hour treated/untreated OD600-ratio” value (S. suis ST8; 13 μg/ml) was 0.12, the “1-hour treated/untreated OD600-ratio” value (S. suis ST8; 30 μg/ml) was 0.06 and the “1-hour treated/untreated OD600-ratio” value (S. suis ST8; 65 μg/ml) was 0.03. The “1-hour treated/untreated OD600-ratio” value (S. suis ST8; 130 μg/ml) was 0.03, the “1-hour treated/untreated OD600-ratio” value (S. suis ST1; 6.5 μg/ml) was 0.80 and the “1-hour treated/untreated OD600-ratio” value (S. suis ST1; 13 μg/ml) was 0.34. The “1-hour treated/untreated OD600-ratio” value (S. suis ST1; 30 μg/ml) was 0.36, the “1-hour treated/untreated OD600-ratio” value (S. suis ST1; 65 μg/ml) was 0.19 and the “1-hour treated/untreated OD600-ratio” value (S. suis ST1; 130 μg/ml) was 0.06. The “1-hour treated/untreated OD600-ratio” value (S. suis ST13; 6.5 μg/ml) was 0.32, the “1-hour treated/untreated OD600-ratio” value (S. suis ST13; 13 μg/ml) was 0.17 and the “1-hour treated/untreated OD600-ratio” value (S. suis ST13; 30 μg/ml) was 0.04. The “1-hour treated/untreated OD600-ratio” value (S. suis ST13; 65 μg/ml) was 0.02, the “1-hour treated/untreated OD600-ratio” value (S. suis ST13; 130 μg/ml) was 0.02 and the “1-hour treated/untreated OD600-ratio” value (S. suis 7197 (ST7); 6.5 μg/ml) was 0.64. For the same molecule, the “1-hour treated/untreated OD600-ratio” value (S. suis 7197 (ST7); 13 μg/ml) was 0.49, the “1-hour treated/untreated OD600-ratio” value (S. suis 7197 (ST7); 30 μg/ml) was 0.39 and the “1-hour treated/untreated OD600-ratio” value (S. suis 7197 (ST7); 65 μg/ml) was 0.16. The “1-hour treated/untreated OD600-ratio” value (S. suis 7197 (ST7); 130 μg/ml) was 0.07, the “1-hour treated/untreated OD600-ratio” value (S. suis ST7; 6.5 μg/ml) was 0.65 and the “1-hour treated/untreated OD600-ratio” value (S. suis ST7; 13 μg/ml) was 0.47. The “1-hour treated/untreated OD600-ratio” value (S. suis ST7; 30 μg/ml) was 0.34, the “1-hour treated/untreated OD600-ratio” value (S. suis ST7; 65 μg/ml) was 0.22 and the “1-hour treated/untreated OD600-ratio” value (S. suis ST7; 130 μg/ml) was 0.11. The “1-hour treated/untreated OD600-ratio” value (S. suis ST3; 6.5 μg/ml) was 0.81, the “1-hour treated/untreated OD600-ratio” value (S. suis ST3; 13 μg/ml) was 0.71 and the “1-hour treated/untreated OD600-ratio” value (S. suis ST3; 30 μg/ml) was 0.48. The “1-hour treated/untreated OD600-ratio” value (S. suis ST3; 65 μg/ml) was 0.32, the “1-hour treated/untreated OD600-ratio” value (S. suis ST3; 130 μg/ml) was 0.16 and the “1-hour treated/untreated OD600-ratio” value (S. suis ST5; 6.5 μg/ml) was 0.78. For the same molecule, the “1-hour treated/untreated OD600-ratio” value (S. suis ST5; 13 μg/ml) was 0.59, the “1-hour treated/untreated OD600-ratio” value (S. suis ST5; 30 μg/ml) was 0.39 and the “1-hour treated/untreated OD600-ratio” value (S. suis ST5; 65 μg/ml) was 0.22. The “1-hour treated/untreated OD600-ratio” value (S. suis ST5; 130 μg/ml) was 0.10, the “1-hour treated/untreated OD600-ratio” value (S. suis 6388 (ST1); 6.5 μg/ml) was 0.15 and the “1-hour treated/untreated OD600-ratio” value (S. suis 6388 (ST1); 13 μg/ml) was 0.13. The “1-hour treated/untreated OD600-ratio” value (S. suis 6388 (ST1); 30 μg/ml) was 0.06, the “1-hour treated/untreated OD600-ratio” value (S. suis 6388 (ST1); 65 μg/ml) was 0.03 and the “1-hour treated/untreated OD600-ratio” value (S. suis 6388 (ST1); 130 μg/ml) was 0.02. The “1-hour treated/untreated OD600-ratio” value (S. suis ST6; 6.5 μg/ml) was 0.76, the “1-hour treated/untreated OD600-ratio” value (S. suis ST6; 13 μg/ml) was 0.56 and the “1-hour treated/untreated OD600-ratio” value (S. suis ST6; 30 μg/ml) was 0.40. The “1-hour treated/untreated OD600-ratio” value (S. suis ST6; 65 μg/ml) was 0.21, the “1-hour treated/untreated OD600-ratio” value (S. suis ST6; 130 μg/ml) was 0.06 and the “1-hour treated/untreated OD600-ratio” value (S. sobrinus 6715; 6.5 μg/ml) was 0.64. The “1-hour treated/untreated OD600-ratio” value (S. sobrinus 6715; 13 μg/ml) was 0.48, the “1-hour treated/untreated OD600-ratio” value (S. sobrinus 6715; 30 μg/ml) was 0.39 and the “1-hour treated/untreated OD600-ratio” value (S. sobrinus 6715; 65 μg/ml) was 0.32. The “1-hour treated/untreated OD600-ratio” value (S. sobrinus 6715; 130 μg/ml) was 0.23, the “1-hour treated/untreated OD600-ratio” value (S. gordonii 10558; 6.5 μg/ml) was 0.76 and the “1-hour treated/untreated OD600-ratio” value (S. gordonii 10558; 13 μg/ml) was 0.32. For the same molecule, the “1-hour treated/untreated OD600-ratio” value (S. gordonii 10558; 30 μg/ml) was 0.19, the “1-hour treated/untreated OD600-ratio” value (S. gordonii 10558; 65 μg/ml) was 0.09 and the “1-hour treated/untreated OD600-ratio” value (S. gordonii 10558; 130 μg/ml) was 0.06.
